From EP3350599B1 come the findings set out here.

Assay [1] concerns the target purified bone alkaline phosphatase from calf intestinal mucosa (AP; Santa Cruz sc-3716 - CAS9001-78-9) (calf) (UniProt P19111). In words: capture ELISA, coated antibody, AP calibrator at 25 ng/ml, bound enzyme read with pNPP. (An ELISA detects its analyte on a solid surface through an enzyme-linked reagent.)
For assay [2] the target is unchanged. In words: capture ELISA, coated antibody, AP calibrator at 3.125 ng/ml, bound enzyme read with pNPP.
For assay [3] the target is unchanged. Nature of the assay: capture ELISA, coated antibody, AP calibrator at 100 ng/ml, bound enzyme read with pNPP.
For assay [4] the target is unchanged. In words: capture ELISA, coated antibody, AP calibrator at 50 ng/ml, bound enzyme read with pNPP.
For assay [5] the target is unchanged. Nature of the assay: capture ELISA, coated antibody, AP calibrator at 6.25 ng/ml, bound enzyme read with pNPP.
Assay [6] has the same target. Nature of the assay: capture ELISA, coated antibody, AP calibrator at 12.5 ng/ml, bound enzyme read with pNPP.

UniProt P19111, sequence (P19111 20-506): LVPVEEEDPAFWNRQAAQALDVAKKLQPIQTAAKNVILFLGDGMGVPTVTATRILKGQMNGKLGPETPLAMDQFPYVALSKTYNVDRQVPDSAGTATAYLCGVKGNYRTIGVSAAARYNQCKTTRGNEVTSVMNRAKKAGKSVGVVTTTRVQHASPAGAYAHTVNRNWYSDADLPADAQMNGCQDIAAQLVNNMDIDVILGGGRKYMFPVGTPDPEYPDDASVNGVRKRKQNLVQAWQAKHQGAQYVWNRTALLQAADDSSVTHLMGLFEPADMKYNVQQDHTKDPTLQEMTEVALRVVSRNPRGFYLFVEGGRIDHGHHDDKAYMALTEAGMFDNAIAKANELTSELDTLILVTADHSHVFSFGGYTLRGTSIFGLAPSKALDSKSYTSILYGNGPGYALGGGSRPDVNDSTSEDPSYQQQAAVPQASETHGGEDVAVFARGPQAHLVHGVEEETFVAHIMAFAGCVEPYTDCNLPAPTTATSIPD

As for “anti-BAP polyclonal IgG antibody (produced in sheep) specific for bone alkaline phosphatase (Abcam Ab68716)”, the Abs. 415 nm, Abs. (1) in assay [1] came out at 0.345 Abs. 415 nm; in assay [2], 0.054 Abs. 415 nm; in assay [3], 1.09 Abs. 415 nm; in assay [4], 0.628 Abs. 415 nm; in assay [5], 0.11 Abs. 415 nm; in assay [6], 0.186 Abs. 415 nm. Besides, the Abs. 415 nm, Abs. (2) in assay [1] stood at 0.272 Abs. 415 nm; in assay [2] it was 0.05 Abs. 415 nm; in assay [3] it was 1.03 Abs. 415 nm; in assay [4] it was 0.501 Abs. 415 nm; in assay [5] it was 0.098 Abs. 415 nm; in assay [6], 0.156 Abs. 415 nm. The Abs. 415 nm, Abs. (3) in assay [1] turned out to be 0.294 Abs. 415 nm; in assay [2], 0.066 Abs. 415 nm; in assay [3], 1.12 Abs. 415 nm; in assay [4], 0.476 Abs. 415 nm; in assay [5] it was 0.089 Abs. 415 nm; in assay [6], 0.161 Abs. 415 nm. The Mean Abs. 415 nm was 0.304 Abs. 415 nm in assay [1]; 0.057 Abs. 415 nm in assay [2]; 1.08 Abs. 415 nm in assay [3]; 0.535 Abs. 415 nm in assay [4]; 0.099 Abs. 415 nm in assay [5]; 0.168 Abs. 415 nm in assay [6].
